The labels stand for the following.
B1: Dihydrolipoyllysine-residue succinyltransferase component of 2-oxoglutarate dehydrogenase complex, P0AFG6 (parent)
chain: MSSVDILVPDLPESVADATVATWHKKPGDAVVRDEVLVEIETDKVVLEVPASADGILDAVLEDEGTTVTSRQILGRLREGNSAGKETSAKSEEKASTPAQRQQASLEEQNNDALSPAIRRLLAEHNLDASAIKGTGVGGRLTREDVEKHLAKAPAKESAPAAAAPAAQPALAARSEKRVPMTRLRKRVAERLLEAKNSTAMLTTFNEVNMKPIMDLRKQYGEAFEKRHGIRLGFMSFYVKAVVEALKRYPEVNASIDGDDVVYHNYFDVSMAVSTPRGLVTPVLRDVDTLGMADIEKKIKELAVKGRDGKLTVEDLTGGNFTITNGGVFGSLMSTPIINPPQSAILGMHAIKDRPMAVNGQVEILPMMYLALSYDHRLIDGRESVGFLVTIKELLEDPTRLLLDV

“And” between values parts separate entries of the source, which are not always exact repeats. Equal values may be shown once.

This data set covers variants of B1. The following applies: Escherichia coli (strain K12), pH 7, structure 1W4H, whole UniProt chain shown.
The mark [1] stands for this setting: 10 °C, GdnHCl, CD, 3-[morpholino]propanesulfonic acid 50 mM, NaCl 200 mM.
[2] abbreviates: 10 °C, GdnHCl, Fluorescence, 3-[morpholino]propanesulfonic acid 50 mM, NaCl 200 mM.
Setting [3] is: Thermal, CD, Potassium phosphate 50 mM, KCl 200 mM.

The values that follow come from FireProtDB (doi:10.1016/j.jmb.2009.05.011).

One may read the Tm as the temperature at the midpoint of the melting transition. As to MSSVDILVPDLPESVADATVATWHKKPGDAVVRDEVLVEIETDKVVLEVPASADGILDAVLEDEGTTVTSRQILGRLREGNSAGKETSAKSEEKASTPAQRQQASLEEQNNDAASPAIRRLLAEHNLDASAIKGTGVGGRLTREDVEKHLAKAPAKESAPAAAAPAAQPALAARSEKRVPMTRLRKRVAERLLEAKNSTAMLTTFNEVNMKPIMDLRKQYGEAFEKRHGIRLGFMSFYVKAVVEALKRYPEVNASIDGDDVVYHNYFDVSMAVSTPRGLVTPVLRDVDTLGMADIEKKIKELAVKGRDGKLTVEDLTGGNFTITNGGVFGSLMSTPIINPPQSAILGMHAIKDRPMAVNGQVEILPMMYLALSYDHRLIDGRESVGFLVTIKELLEDPTRLLLDV [L114A], under setting [1], the “ddG of mutation (higher = less stable)” value was 0.9 kcal/mol, the denaturant m value stood at 0.71 kcal/mol/M, the “denaturant midpoint (higher = more stable)” value (shortened to “denaturant midpoint”) turned out to be 2.6 M and the unfolding free energy was determined as 1.85 kcal/mol. For the same variant, under setting [2], the denaturant m value was 0.5 kcal/mol/M and 0.18 kcal/mol/M; the unfolding free energy amounted to 1.7 kcal/mol. Under setting [3], the melting temperature (Tm) was 41.9 °C, the “ddG of mutation (higher = less stable)” value was 0.94 kcal/mol and the “unfolding enthalpy (van 't Hoff)” value came out at 20 kcal/mol.

Consider MSSVDILVPDLPESVADATVATWHKKPGDAVVRDEVLVEIETDKVVLEVPASADGILDAVLEDEGTTVTSRQILGRLREGNSAGKETSAKSEEKASTPAQRQQASLEEQNNDALSPAIRRLLAEHNADASAIKGTGVGGRLTREDVEKHLAKAPAKESAPAAAAPAAQPALAARSEKRVPMTRLRKRVAERLLEAKNSTAMLTTFNEVNMKPIMDLRKQYGEAFEKRHGIRLGFMSFYVKAVVEALKRYPEVNASIDGDDVVYHNYFDVSMAVSTPRGLVTPVLRDVDTLGMADIEKKIKELAVKGRDGKLTVEDLTGGNFTITNGGVFGSLMSTPIINPPQSAILGMHAIKDRPMAVNGQVEILPMMYLALSYDHRLIDGRESVGFLVTIKELLEDPTRLLLDV [L127A], for which, under setting [1], the “ddG of mutation (higher = less stable)” value was 1.37 kcal/mol, the denaturant m value came out at 0.63 kcal/mol/M, the “denaturant midpoint” value is 1.95 M and the unfolding free energy turned out to be 1.23 kcal/mol. Moreover, under setting [2], the denaturant m value is 0.41 kcal/mol/M and 0.18 kcal/mol/M; the unfolding free energy was 1.2 kcal/mol. Moreover, under setting [3], the midpoint of thermal melting (Tm) is 29.2 °C, the “ddG of mutation (higher = less stable)” value is 1.9 kcal/mol and the “unfolding enthalpy (van 't Hoff)” value turned out to be 12 kcal/mol.

Turning to MSSVDILVPDLPESVADATVATWHKKPGDAVVRDEVLVEIETDKVVLEVPASADGILDAVLEDEGTTVTSRQILGRLREGNSAGKETSAKSEEKASTPAQRQQASLEEQNNDALSPAIRRLLAEHNLDASAIKGTGVGGRLTREDVEKHAAKAPAKESAPAAAAPAAQPALAARSEKRVPMTRLRKRVAERLLEAKNSTAMLTTFNEVNMKPIMDLRKQYGEAFEKRHGIRLGFMSFYVKAVVEALKRYPEVNASIDGDDVVYHNYFDVSMAVSTPRGLVTPVLRDVDTLGMADIEKKIKELAVKGRDGKLTVEDLTGGNFTITNGGVFGSLMSTPIINPPQSAILGMHAIKDRPMAVNGQVEILPMMYLALSYDHRLIDGRESVGFLVTIKELLEDPTRLLLDV [L150A], under setting [1], the “ddG of mutation (higher = less stable)” value was 0.6 kcal/mol and 0.74 kcal/mol; the denaturant m value is 0.71 kcal/mol/M and 0.69 kcal/mol/M; the “denaturant midpoint” value is 3.02 M and 1.98 M; the unfolding free energy was 2.14 kcal/mol and 1.37 kcal/mol. Besides, the unfolding free energy under setting [2] was 2.13 kcal/mol and 1.46 kcal/mol. Under setting [3], the “ddG of mutation (higher = less stable)” value was 0.57 kcal/mol and 1.18 kcal/mol; the “unfolding enthalpy (van 't Hoff)” value was 23 kcal/mol and 18 kcal/mol.

For MSSVDILVPDLPESVADATVATWHKKPGDAVVRDEVLVEIETDKVVLEVPASADGILDAVLEDEGTTVTSRQILGRLREGNSAGKETSAKSEEKASTPAQRQQASLEEQNNDALSPAIRRLLGEHNLDASAIKGTGVGGRLTREDVEKHLAKAPAKESAPAAAAPAAQPALAARSEKRVPMTRLRKRVAERLLEAKNSTAMLTTFNEVNMKPIMDLRKQYGEAFEKRHGIRLGFMSFYVKAVVEALKRYPEVNASIDGDDVVYHNYFDVSMAVSTPRGLVTPVLRDVDTLGMADIEKKIKELAVKGRDGKLTVEDLTGGNFTITNGGVFGSLMSTPIINPPQSAILGMHAIKDRPMAVNGQVEILPMMYLALSYDHRLIDGRESVGFLVTIKELLEDPTRLLLDV [A123G], under setting [1], the “ddG of mutation (higher = less stable)” value worked out at 0.93 kcal/mol, the denaturant m value worked out at 0.72 kcal/mol/M, the “denaturant midpoint” value was found to be 2.55 M and the unfolding free energy turned out to be 1.84 kcal/mol. In addition, under setting [2], the denaturant m value is 0.42 kcal/mol/M and 0.23 kcal/mol/M; the unfolding free energy came out at 1.81 kcal/mol. Besides, under setting [3], the Tm was determined as 40.8 °C, the “ddG of mutation (higher = less stable)” value was 1.02 kcal/mol and the “unfolding enthalpy (van 't Hoff)” value came to 20 kcal/mol.

Consider MSSVDILVPDLPESVADATVATWHKKPGDAVVRDEVLVEIETDKVVLEVPASADGILDAVLEDEGTTVTSRQILGRLREGNSAGKETSAKSEEKASTPAQRQQASLEEQNNDALSPAIRRLLAEHNLDGSAIKGTGVGGRLTREDVEKHLAKAPAKESAPAAAAPAAQPALAARSEKRVPMTRLRKRVAERLLEAKNSTAMLTTFNEVNMKPIMDLRKQYGEAFEKRHGIRLGFMSFYVKAVVEALKRYPEVNASIDGDDVVYHNYFDVSMAVSTPRGLVTPVLRDVDTLGMADIEKKIKELAVKGRDGKLTVEDLTGGNFTITNGGVFGSLMSTPIINPPQSAILGMHAIKDRPMAVNGQVEILPMMYLALSYDHRLIDGRESVGFLVTIKELLEDPTRLLLDV [A129G], for which, under setting [1], the “ddG of mutation (higher = less stable)” value was 0.56 kcal/mol, the denaturant m value was determined as 0.72 kcal/mol/M, the “denaturant midpoint” value came to 3.07 M and the unfolding free energy turned out to be 2.21 kcal/mol. Besides, under setting [2], the denaturant m value is 0.5 kcal/mol/M and 0.2 kcal/mol/M; the unfolding free energy is 2.22 kcal/mol. In addition, under setting [3], the Tm was found to be 46.5 °C, the “ddG of mutation (higher = less stable)” value came out at 0.58 kcal/mol and the “unfolding enthalpy (van 't Hoff)” value was determined as 22 kcal/mol.
